Consider 1 molecule from CN114516919A (SUZHOU BAIDAI MEDICAL SCIENCE AND TECH LIMITED COMPANY, dated 2022).

This experiment deals with T1, 肾组织切片中的PLA2R1蛋白 (human, UniProt Q13018 21-1463).
T1 construct: whole, on cells
Briefly: immunohistochemistry on FFPE kidney tissue sections, DAB.

T1 sequence (Q13018 21-1463): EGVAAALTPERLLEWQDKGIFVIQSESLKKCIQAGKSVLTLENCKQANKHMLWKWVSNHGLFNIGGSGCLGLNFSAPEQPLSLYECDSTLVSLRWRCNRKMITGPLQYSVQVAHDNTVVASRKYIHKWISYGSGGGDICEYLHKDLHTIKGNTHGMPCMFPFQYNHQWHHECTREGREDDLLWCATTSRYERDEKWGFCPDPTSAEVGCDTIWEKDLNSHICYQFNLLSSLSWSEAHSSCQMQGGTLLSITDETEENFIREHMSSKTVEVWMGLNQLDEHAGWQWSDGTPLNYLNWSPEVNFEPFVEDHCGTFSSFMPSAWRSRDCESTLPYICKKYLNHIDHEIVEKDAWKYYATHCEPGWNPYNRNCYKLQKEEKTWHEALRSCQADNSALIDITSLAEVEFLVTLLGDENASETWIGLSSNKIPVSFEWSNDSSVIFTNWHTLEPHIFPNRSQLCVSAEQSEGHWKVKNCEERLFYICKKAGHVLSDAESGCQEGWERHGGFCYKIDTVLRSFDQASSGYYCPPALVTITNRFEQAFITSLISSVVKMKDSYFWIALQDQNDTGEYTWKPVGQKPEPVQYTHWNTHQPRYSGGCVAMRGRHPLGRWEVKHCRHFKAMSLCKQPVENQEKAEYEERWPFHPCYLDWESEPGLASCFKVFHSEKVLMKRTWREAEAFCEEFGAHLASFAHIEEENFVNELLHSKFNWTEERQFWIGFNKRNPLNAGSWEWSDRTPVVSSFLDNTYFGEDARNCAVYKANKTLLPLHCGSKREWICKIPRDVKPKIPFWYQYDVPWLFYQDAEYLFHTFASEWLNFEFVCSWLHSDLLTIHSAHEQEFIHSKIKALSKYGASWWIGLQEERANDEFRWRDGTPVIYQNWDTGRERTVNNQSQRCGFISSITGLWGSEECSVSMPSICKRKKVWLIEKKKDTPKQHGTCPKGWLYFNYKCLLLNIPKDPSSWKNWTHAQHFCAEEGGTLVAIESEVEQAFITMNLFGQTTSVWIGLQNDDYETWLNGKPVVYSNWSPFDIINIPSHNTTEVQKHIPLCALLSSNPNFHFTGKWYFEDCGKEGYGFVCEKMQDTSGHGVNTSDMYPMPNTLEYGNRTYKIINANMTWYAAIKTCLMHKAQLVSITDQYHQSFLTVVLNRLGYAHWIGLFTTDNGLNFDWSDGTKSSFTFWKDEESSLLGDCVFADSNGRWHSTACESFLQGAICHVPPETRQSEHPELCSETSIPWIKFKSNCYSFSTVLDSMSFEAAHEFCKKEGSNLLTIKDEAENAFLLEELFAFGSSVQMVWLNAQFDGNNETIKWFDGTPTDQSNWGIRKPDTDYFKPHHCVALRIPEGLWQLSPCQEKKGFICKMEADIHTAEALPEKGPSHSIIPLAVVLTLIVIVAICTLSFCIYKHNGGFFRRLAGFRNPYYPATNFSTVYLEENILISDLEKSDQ

B1: 54D11抗PLA2R重组兔单克隆抗体 (antibody, V domains shown)
VH: QSVEESGGRLVTPGTPLTLTCTVSGIDLSSHGMGWVRQAPGKGLEWIGYINTGGSAYYASWAKGRFTISRTSTTVDLKMTSLTTEDTATYFCARGDPDYTSGFPIWGPGTLVTVSS
VL: AFEMTQTPASVEVAVGGTVTIKCQASESISSWLAWYQQKPGQPPKLLIYRASTLASGVPSRFSGSGSGTQFTLTISGVECADAATYYCQQGYSSHNIDNIFGGGTEVVVR
notes: also called 54D11抗PLA2R单克隆抗体; 54D11克隆的PLA2R重组兔单克隆抗体
B1: the binding result is recorded as “binds”.
